Target: mouse Kv4.2 channel with GFP fused to the C-terminus (Kv4.2g) (mouse) (UniProt Q9Z0V2)
Test: co-IP; anti-GFP IP (Pierce Classic Magnetic IP/Co-IP kit, overnight 4°C, lysis buffer with 20 mM NEM and protease inhibitors) from lysates (0.5 mg protein) of HEK cells expressing Kv4.2g + HA-KChIP2a + HA-DPP10c, with or without co-transfected SUMO2 + Ubc9; blot for α-adaptin, stripped and re-probed for Kv4.2g; OD α-adaptin ÷ OD Kv4.2g

Sequence of UniProt Q9Z0V2 (Q9Z0V2 whole entry, the tested form may be a part): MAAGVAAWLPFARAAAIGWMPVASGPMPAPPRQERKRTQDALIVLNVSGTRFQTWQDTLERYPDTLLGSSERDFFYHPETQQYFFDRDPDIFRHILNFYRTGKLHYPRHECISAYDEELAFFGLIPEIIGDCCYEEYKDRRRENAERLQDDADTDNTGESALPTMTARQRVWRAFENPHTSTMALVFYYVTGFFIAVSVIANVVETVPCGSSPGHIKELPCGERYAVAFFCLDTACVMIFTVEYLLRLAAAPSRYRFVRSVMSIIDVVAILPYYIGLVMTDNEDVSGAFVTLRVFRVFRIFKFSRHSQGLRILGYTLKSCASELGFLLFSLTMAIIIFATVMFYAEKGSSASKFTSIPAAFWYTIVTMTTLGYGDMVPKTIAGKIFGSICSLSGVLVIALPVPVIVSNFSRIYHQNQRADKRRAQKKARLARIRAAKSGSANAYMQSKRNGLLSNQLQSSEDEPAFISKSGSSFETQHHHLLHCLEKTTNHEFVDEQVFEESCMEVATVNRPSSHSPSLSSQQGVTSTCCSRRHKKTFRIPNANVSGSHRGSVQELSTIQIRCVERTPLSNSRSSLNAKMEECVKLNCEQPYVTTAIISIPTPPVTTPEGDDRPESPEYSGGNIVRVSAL

OD α-adaptin ÷ OD Kv4.2g in the anti-GFP IP (control, without SUMO2 + Ubc9): 0.02
OD α-adaptin ÷ OD Kv4.2g in the anti-GFP IP (with co-expressed SUMO2 + Ubc9): 0.02
Substance: α-adaptin subunit of adaptor protein 2 complex (AP2) (from UniProt O95782 1-977) (natural protein)

Source: article PMC8593141
